From patent US20030175848A1, “Substituted dithiobisnitrobenzenes and their applications” (Institut Pasteur De Lille, priority 1998, published 2003)

Substrate: CN(C)CCCNC(=O)c1cc(SSc2ccc([N+](=O)[O-])c(C(=O)NCCCN(C)C)c2)ccc1[N+](=O)[O-]
Test: purified protein, by the assay type
Settings: other: substrate of recombinant TcTR, 25° C., buffer A pH 7.25, 0.2 mM NADPH, * = estimated at low substrate concentrations (15-200 μM), inhibition effects
Experimental: The TcTR concentration is determined by measuring the number of subunits containing FAD at 461 nm (ε=11.3 mM^−1×cm^−1); the enzymatic activity is tested as specified in (28). One TR unit corresponds to 1 μmol of T(S)2 reduced per minute at 25° C. in a buffer A (20 mM Hepes, pH 7.25 containing 1 mM EDTA and 0.15 M KCl).
The enzyme stock solutions used for the kinetic determinations are pure (verification in SDS-PAGE) and have a specific activity of 137 U/mg in the T(S)2 reduction test performed in the presence of 500 μM NADPH and 518 μM T(S)2 in a buffer A.
All the kinetic studies are carried out in the same buffer at 25° C., in the presence of 200 μM of NADPH.
All the tests were carried out at 25° C. in 20 mM HEPES, 1 Mm EDTA, 150 mM KCl, at pH 7.25 (buffer A) and in the presence of 0.2 mM NADPH.

B1: trypanothione reductase from Trypanosoma cruzi (TcTR) (Trypanosoma cruzi) (protein)
chain: MMSKIFDLVVIGAGSGGLEAAWNAATLYKKRVAVIDVQMVHGPPFFSALGGTCVNVGCVPKKLMVTGAQYMEHLRESAGFGWEFDRTTLRAEWKKLIAVKDEAVLNINKSYEEMFRDTEGLEFFLGWGSLESKNVVNVRESADPASAVKERLETENILLASGSWPHMPNIPGIEHCISSNEAFYLPEPPRRVLTVGGGFISVEFAGIFNAYKPKDGQVTLCYRGEMILRGFDHTLREELTKQLTANGIQILTKENPAKVELNADGSKSVTFESGKKMDFDLVMMAIGRSPRTKDLQLQNAGVMIKNGGVQVDEYSRTNVSNIYAIGDVTNRVMLTPVAINEAAALVDTVFGTNPRKTDHTRVASAVFSIPPIGTCGLIEEVASKRYEVVAVYLSSFTPLMHNISGSKYKTFVAKIITNHSDGTVLGVHLLGDNAPEIIQGVGICLKLNAKISDFYNTIGVHPTSAEELCSMRTPSYYYVKGEKMEKPSEASL
Km: 35 µM | kcat: 125 s⁻¹ | kcat/Km: 3.6e+06 M⁻¹ s⁻¹
